Data on 19 sequences can be found in a protein production outcome set (Wang et al. 2014).

A short description of the series: label from the status in PepcDB records.
As to “MRRGRGKGKKQNASAREDRGSGDEEKIPAYRRRGRPQKPMKDDFEEEEEEDDEEMVEKMEVEDEDEEIDDGSVTSKDLKERKRKMSNGSNTDLTEEENGLGSKPNTDDSTRSTSIGFRQNGSRRKSKPRRAAEAVVECNGV”, the protein production result was “failed”.
As to “MFIEALILLCLVGAAAVFIAPDRYAHKLALGLSVPPLVVSLYMYAAFDGSGNALLGGDIAYETATEWLQLGQYTVSYHVGLDGISLPLVVLSTVLTTLAILSAWTPIDERQSEFYGLVLLLEGSLIGVFAALDFILWFVFWEAVLIPMYLLIGVWGGPRRKYAAIKFFVYTNIASLVMFIGYFALVFGLGDAVSSTGMPAVAQALRADQLGYLGTAAVGIGPDMLAMAAFLAMFVGFAVKVPVVPFHTWLPDAHVEAPTPVSVLLAGVLLKMGTYALLRFNFTMLPDQVETFAVPIALIAIISILYGALLALAQKDLKRIVAYSSVSSMGYVILGLVAYTVYGVGGATFQMIAHGLISGLLFMTVGVFYNATHTRMVGDMGGLADRMPVTAGIFIAGAFGYMGLPLMAGFMAELFVFIGAFQSAILPYAPVITAAGMFGIVVVAGYLLWAMQRSLFGPFRLETDYELERAPVHDIVPLLTLVALIIALGVAPDLIFEMIRDATHSVIDYDFGGDL”, the protein production result is “failed”.
The entry for “MFRRLILRQAAAVAAESKIACHHTVHGFEQRRGLHSRNEKAMEYVAKGWSAIKEVERVIDYCELNDRRLIPLLRGAKENFELALEADNLNTHARYWLSKLHLKYHVPGACKAVGAALLVEAADMGNADAQYELGCRLRVENDHVQSDQQAFHYIENAVDQLHPGALYLLGIVYLTGDCVKQDVDSAIWCFHRASEKGHAGAAIAYGSLLLRGVQVPESLTKLNVVGVSPPKRARKNLENPEMNPLEMAKEQFQIAARAGCDLGLKWLQRVEQEEKLLMREQDNECAYV” is “failed”; for “MKEIDELTIKEYGVDSRILMERAGISVVLAMEEELGNLSDYRFLVLCGGGNNGGDGFVVARNLLGVVKDVLVVFLGKKKTPDCEYNYGLYKKFGGKVVEQFEPSILNEFDVVVDAIFGTGLRGEITGEYAEIINLVNKSGKVVVSVDVPSGIDSNTGKVLRTAVKADLTVTFGVPKIGHILFPGRDLTGKLKVANIGHPVHLINSINRYVITREMVRSLLPERPRDSHKGTYGKVLIIAGSRLYSGAPVLSGMGSLKVGTGLVKLAVPFPQNLIATSRFPELISVPIDTEKGFFSLQNLQECLELSKDVDVVAIGPGLGNNEHVREFVNEFLKTLEKPAVIDADAINVLDTSVLKERKSPAVLTPHPGEMARLVKKTVGDVKYNYELAEEFAKENDCVLVLKSATTIVTDGEKTLFNITGNTGLSKGGSGDVLTGMIAGFIAQGLSPLEASTVSVYLHGFAAELFEQDERGLTASELLRLIPEAIRRLKE” it is “not failed”; for “MSGLAQRSDDPWLAALPAAVLYGAWAAYANQDGGLAGMGVAALLQGAASLLATRFGLYLLQCLGRRHGLAQRQAPLLVVLLLTAPMAALHWLSGTPHPLASVAPSFVIGWLYFALWARRRPGRRQASGA” it is “failed”.
Turning to “MPTNQDLQLAAHLRSQVTTLTRRLRREAQADPVQFSQLVVLGAIDRLGGDVTPSELAAAERMRSSNLAALLRELERGGLIVRHADPQDGRRTRVSLSSEGRRNLYGNRAKREEWLVRAMHACLDESERALLAAAGPLLTRLAQFEEP”, the protein production entry was “not failed”.
As for “MSLHGKLIQFHKFGNPKDVLQVEYKNIEPLKDNEVFVRMLVRPINPSDLIPITGAYAHRIPLPNIPGYEGVGIVENVGAFVSRELIGKRVLPLRGEGTWQEYVKTSADFVVPIPDSIDDFTAAQMYINPLTAWVTCTETLNLQRNDVLLVNACGSAIGHLFAQLSQILNFRLIAVTRNNKHTEELLRLGAAYVIDTSTAPLYETVMELTNGIGADAAIDSIGGPDGNELAFSLRPNGHFLTIGLLSGIQVNWAEIVTKAKVHANIFHLRHWNDEVSPYKWQETFRHLIRLVENEQLRFMKVHSTYELADVKAAVDVVQSAEKTKGKVFLTSYEGHHHHHH”, the entry is “not failed”.
Consider “MDFSDLDYSDAGDSGWTMYLGHSSSVSLHHFDYHNGETKQEHDEDSSMVSDASSGPPYYCEETVHEDHLQQNTQYWCKSKSKNKNKNKKKVHEEQGYSERFNSSFDDTASSLEKVNSGFLQQAFPVDKLALDNQGGDNQRKRRG”, for which the protein production entry is “failed”.
With “MTLTQQKVKFFSKAYHDVKRLYLSAFPPRERFPYFCLLLNSLRSLVTCYAYYDKERFVGFAYIIESKEQVFILFLAVNGSVRSKGYGSMILAQIREYAGRKPLILTIEPVEKDSPNSEQRRQRLSFYERNGYQLTSHYYYEGQERYQILTTEQSIDLERFQKLVKRAVLGLVLITV”, the protein production entry is “failed”.
The entry for “MNPKHSCTNFGADIPVNSQLIVTTSELRQKLKEKNKFILVDNRTWDEHIGKVSGYTYYDKKGRIPGALYGHSGSDSVSLEEYRNIDNTMRNKYEILEMWDKENIDVNKQLIFMCGSGWRAAEVLTYANVIGVENTSLYSDGWMGWSLDNSNLIEVGEHKLEHHHHHH” is “failed”; for “MRPESMTDGVPGSDSPAAAAAAASVTTSLHDLQVLVERGTLSGPEKQQADHLVTSLKRELVLRRVGDHLAERTFHELCVRLAVMERDWAAMERHIQQLMPLYELDRQAGIQSPHRDLLVGLNLMRLLAQNRLAEYHMELELLPTTEPQQNPYVLFPFQVEQALTEGSYQKILHIEAGAEWLPFIELLRETTIQEMVTSWAEAYAHVTLEELASMAALPVEQVPALLARVLDCTQYVVQNETVHFIASDHIREAPSQYLLAKEAVSRTMEYIRGLERIV” it is “not failed”.
“MNSLINIFNQYSELAIFISLFISVIIALLGIVPSVFVTGANIVFFGPINGFLISLLGEVIGGWISFKVYRKGINKFAGNIEGKYELIDKIVKSEGRNVGILIFEGRLIPFIPSGLVTLAAAMSKVNSFTFIISTFLGKIPSILLEVLASYGVIMASQKNLKLVIGVLSLILFLLTLKKLKDKTNKK”: the protein production entry is recorded as “failed”.
As to “MLMMLKSLRVNRILKLLLLAIFSSFMIIACGDRLTQYTVSQKISPSTECQVIQHQVGETQVCGQPQKIVALGPNVLEILLALDVQPVGFADHVPLHQGNYDNPSQQIPYLGERVTGELINLGLAYTPSIEALLKIKPDLIIGNELNRSQYEMLSKIAPTLLFPRFDAQPNLLAISKILGRSEKAKKILADSDQRLAIAQKALSDIVANHPQVLMLVSLGQSISEQLRFPRRDSFCDSLVTNLGFKLMSPSSLVPADKSVPPPLSIETLPQFNSADSIILLGANFSQVQLSDDKYFEPQMQKLKQQWSENAIAQSLTASKEGRVYFIPAYLCLGLPGPIGTELYLQELQKQLLSPQGK”, the protein production entry is recorded as “failed”.
The entry for “MEFTTGLMSLDTALNEMLSRVTPLTAQETLPLVQCFGRILASDVVSPLDVPGFDNSAMDGYAVRLADIASGQPLPVAGKSFAGQPYHGEWPAGTCIRIMTGAPVPEGCEAVVMQEQTEQMDNGVRFTAEVRSGQNIRRRGEDISAGAVVFPAGTRLTTAELPVIASLGIAEVPVIRKVRVALFSTGDELQLPGQPLGDGQIYDTNRLAVHLMLEQLGCEVINLGIIRDDPHALRAAFIEADSQADVVISSGGVSVGEADYTKTILEELGEIAFWKLAIKPGKPFAFGKLSNSWFCGLPGNPVSATLTFYQLVQPLLAKLSGNTASGLPARQRVRTASRLKKTPGRLDFQRGVLQRNADGELEVTTTGHQGSHIFSSFSLGNCFIVLERDRGNVEVGEWVEVEPFNALFGGL” is “not failed”; for “MAKASSPTDTGKQKVRSAEVGTDILKALAELSPSTSLSRLAEHVQMPASKVHRYLQALIASGFAEQDAATNHYGLGREALRVGLAALGSIDVLKVAAMPLSQLRDELNESCFIAVWGNQGATVVSIEPAVRAVTVVTQIGSVLPLLSSSTGLVFAAYLPERETQELRDRELAALQQTASDYHTLLAGIREKGLHHVHGLLMPGVDALSAPVFNAMGQIAAVMTVVGPTSIFHADEHGPAAQSLLTAARTVSWRMGYAGNPHCASTSSVSSSTSQSSS” it is “failed”; for “MSIQAPPRLLELAGQSLLRDQALSISAMEELPRVLYLPLFMEAFRRRHFQTLTVMVQAWPFTCLPLGSLMKTLHLETLKALLEGLHMLLTQKDRPRRWKLQVLDLRDVDENFWARWPGAWALSCFPETMSKRQTAEDCPRMGEHQPLKVFIDICLKEIPQDECLRYLFQWVYQRRGLVHLCCSKLVNYLTPIKHLRKSLKIIYLNSIQQLEIRNMSWPRLIRKLRCYLKEMKNLRKLVFSRCLQNPLENLELTYGYLLEEDMKCLSQYPSLGYLKHLNLSYVLLFRISLEPLGALLEKIAASLETLILEGCQIHYSQLSAILPGLSHCSQLTTFYFGRNCMSMGALKDLLCHTSGLSKLSLETYPAPEESLNSLVRVDWEIFALLRAELMCTLREVRQPKRIFIGPTPCPSCGSSPSEELELHLCC” it is “failed”.
Turning to “MDAETAESLKLLKNISLYTETYGCTYNAGDTEKLMEIARNQGCVPASSAEEADAILINTCVVIDKTEQHMYERLDLYAGKLLFVTGCLPPVAADVLRTRYPKIHIIDPALIHSCYMEVGTAHVGTNAVLQIARGCNGHCTYCITRLARGKLVSFSAEDIVRQAKSIVEAGATEIQLTAQDTSSWGLDRNDGLRLPDLLRQLCAIPGNFMIRIGMANPDTLLPILDDFLDALKDPKIFLFLHIPVQSGSDSVLRLMGRRYTSAQYEEICQRARKAFPEIRISTDYIAGFSGETDEDAAKSAEQIRRTRPGKVNITRFSVRPNTPAAKMKKIPEPIKKQRSRELTDAANEVYDANNEALIGHIMTAVVTEVVKAGSVTARDRTYQNIVIMENLEIGTEITVKITGHRRHYLIGERIVP”, the protein production entry is reported as “failed”.
For “MIVDFETHFITEACIDYLTQRQEVPKLVPDLNGAYTMCFTPDVSLFHTSALMEELLSLNEQRLAIMDQAGVTIQVLSLTTINGIDSCPGDENKSTALAREVNDQLYSAIQRHPERFKGFASISPYDVKEGVKELERAISQLGFVGWLTHSNFGQDNYLDDKTYWPLLEAAEGLNIPIYLHPNVPIMREFGKYGFALGGSALGFEFDTALCLMRMILGGVFDAFPKLKIMLGHLGETMPFLMERLDHLYRIPDLKAYRPSIQRIPSEVLRQNVYITTSGRFFVPALRYVLEVMGEDRVLFASDYPMESLLDATRFIQDSDLSNQTKQKIFSINAKNLNLILEHHHHHH”, the protein production entry was “failed”.
With “MPPDEIEIEPVRQSSDKMLYCEAESPPTVEKVKPARENSETDLEIEDDEKFFTTGQKELYLEACKLMGVVPVSYFIRNMEESYVNLNHHGLGPRGTKAIAIALVSNMAVTKLELEDNCIMEEGVLSLVEMLQENYYLQEMNISNNHLGLEGARIISDFFERNSSSIWSLELSGNDFKEDSAALLCQALSTNYQIKKLDLSHNQFSDVGGEHLGQMLAINVGLTSLDLSWNNFHTRGAVALCNGLRGNVTLTKLDLSMNGFGNEVALALGEVLRLNRCLVYLDIGGNDIGNEGASKISKGLESNESLRVLKLFLNPINMDGAILLILAIKRNPKSRMEELDISNVLVSEQFMKTLDGVYAVHPQLDVVFKAVQGLSPKKTIFLLTNPMKLIQSYADQHKITIVDFFKSLNPTGTMKMSVDEFQKVMIEQNKVPLNQYQVREVIKKLDEKTGMVNFSFLNTMKP”, the protein production result was “failed”.
